Reference: patent US6423503 (HYBRITECH, dated 2002)

T1: α1antichymotrypsin (ACT) (human, UniProt P01011 24-423)
T1 construct: Used in excess in the incubation with PZ-N PSA
T1 sequence (looked up): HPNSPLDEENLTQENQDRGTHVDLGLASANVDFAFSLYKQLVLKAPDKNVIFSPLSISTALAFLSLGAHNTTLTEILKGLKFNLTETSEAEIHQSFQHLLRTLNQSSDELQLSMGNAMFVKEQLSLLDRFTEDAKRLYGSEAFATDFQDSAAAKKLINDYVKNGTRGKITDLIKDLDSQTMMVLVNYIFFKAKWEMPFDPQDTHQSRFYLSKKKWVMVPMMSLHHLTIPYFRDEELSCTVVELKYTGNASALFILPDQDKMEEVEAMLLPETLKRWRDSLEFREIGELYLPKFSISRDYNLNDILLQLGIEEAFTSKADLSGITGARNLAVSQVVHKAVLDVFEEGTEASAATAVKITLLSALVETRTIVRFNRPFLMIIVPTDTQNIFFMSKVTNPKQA

B1: [+5]PSA (enzyme)
chain: not shown
notes: I equated '[+5]PSA' with 'PSA clipped after Gly4'; also called PSA clipped after Gly4
B2: [-2]pPSA (enzyme)
chain: not shown
notes: also called [-2]proPSA
B3: [-4]pPSA (enzyme)
chain: not shown
notes: also called [-4]proPSA
B4: [-1]pPSA (enzyme)
chain: not shown

Molecular target: T1, α1antichymotrypsin (ACT)
Assay: incubation with excess ACT, HIC-HPLC, N-terminal sequencing
Protocol: Figure 4: FIG. 4 is HIC-HPLC profile of the reaction mixture of PZ-N PSA incubated with excess ACT. […] Peak 2 is the residual excess active ACT. Peak 3 is the covalent PSA-ACT complex.
The original profile of this PZ-N sample is seen in FIG. 1. […] Peak 2 is the residual excess active ACT remaining after incubation. […] The [−2]pPSA is a truncated form of pPSA which contains the last two amino acids of the 7 amino acid pro leader peptide. PPSA is expressed with a heptapeptide pro leader sequence consisting of APLILSR. Thus, the [−2] pPSA contains the serine-arginine dipeptide on the N-terminal isoleucine of mature PSA. The minor peak eluting at 12 min contains the [−4]pPSA. The retention time of [−4]pPSA has been reported previously (10).

Does B1 bind?
Result: no binding

Does B2 bind?
Result: no binding

Does B3 bind?
Result: no binding

Does B4 bind?
Result: no binding
